Results on one substance are retold here after patent US20250051788A1.

Common to all, as to experiment: anti-FLAG IP-MS vs mock IP
The target of experiment [1] is Thioredoxin superfamily protein (ATHM2) (AT4G03520) (Arabidopsis thaliana) (UniProt Q9SEU8).
Experiment [2] has as its target Phosphoserine aminotransferase (PSAT) (AT4G35630) (Arabidopsis thaliana) (UniProt Q96255).
Experiment [3] has as its target Nodulin-related protein 1 (NRP1) (AT2G03440) (Arabidopsis thaliana) (UniProt Q9ZQ80).
The target in experiment [4] is thioglucoside glucohydrolase 1 (TGG1) (AT5G26000) (Arabidopsis thaliana) (UniProt P37702).
Sequence of UniProt P37702 (P37702 20-541 limits assumed): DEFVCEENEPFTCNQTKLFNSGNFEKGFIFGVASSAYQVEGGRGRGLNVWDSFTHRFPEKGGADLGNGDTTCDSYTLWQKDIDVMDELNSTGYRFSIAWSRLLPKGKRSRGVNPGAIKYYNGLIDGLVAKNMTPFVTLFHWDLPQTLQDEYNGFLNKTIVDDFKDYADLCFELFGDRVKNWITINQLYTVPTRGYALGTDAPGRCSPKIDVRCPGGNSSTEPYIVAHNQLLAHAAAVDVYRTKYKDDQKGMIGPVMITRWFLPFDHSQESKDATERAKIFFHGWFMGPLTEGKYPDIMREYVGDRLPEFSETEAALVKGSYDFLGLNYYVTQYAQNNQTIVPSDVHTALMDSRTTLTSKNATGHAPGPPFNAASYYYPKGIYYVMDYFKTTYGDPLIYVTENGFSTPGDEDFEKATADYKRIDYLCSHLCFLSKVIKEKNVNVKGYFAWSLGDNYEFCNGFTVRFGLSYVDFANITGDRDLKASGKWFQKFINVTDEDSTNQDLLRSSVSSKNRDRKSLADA

Sequence of UniProt Q9ZQ80 (Q9ZQ80 whole entry): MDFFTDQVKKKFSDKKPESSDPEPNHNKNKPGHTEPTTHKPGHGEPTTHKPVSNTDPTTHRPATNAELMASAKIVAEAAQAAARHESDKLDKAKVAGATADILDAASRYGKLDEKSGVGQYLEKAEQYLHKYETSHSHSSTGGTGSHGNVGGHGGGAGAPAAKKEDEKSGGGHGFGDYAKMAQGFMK
Sequence of UniProt Q9SEU8 (Q9SEU8 73-186): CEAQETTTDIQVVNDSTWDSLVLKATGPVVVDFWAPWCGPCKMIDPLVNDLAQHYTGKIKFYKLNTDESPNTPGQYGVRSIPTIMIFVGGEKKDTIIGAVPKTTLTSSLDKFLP
Sequence of UniProt Q96255 (Q96255 52-430): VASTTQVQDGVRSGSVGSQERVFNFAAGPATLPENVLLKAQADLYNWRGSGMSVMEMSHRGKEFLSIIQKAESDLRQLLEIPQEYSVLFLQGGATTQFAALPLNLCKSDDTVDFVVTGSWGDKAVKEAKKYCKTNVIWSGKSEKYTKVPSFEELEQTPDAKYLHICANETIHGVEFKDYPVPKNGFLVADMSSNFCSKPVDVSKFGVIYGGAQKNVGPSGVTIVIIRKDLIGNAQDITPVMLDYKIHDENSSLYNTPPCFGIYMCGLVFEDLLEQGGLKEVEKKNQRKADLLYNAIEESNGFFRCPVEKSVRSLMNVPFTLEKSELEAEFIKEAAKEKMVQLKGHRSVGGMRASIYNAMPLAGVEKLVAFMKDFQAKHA

Consider “FLAG-BD (FLAG-tagged minimal Arabidopsis BRN1 protein that contains only the first two RRM domains) (from UniProt Q8LFS6 2-199)”, for which the Log2(FC) Replicate 1/ Mock was 0.585 log2 in experiment [1], 3.09 log2 in experiment [2], 2 log2 in experiment [3] and -0.214 log2 in experiment [4]. Besides, the Log2(FC) Replicate 2/ Mock in experiment [1] worked out at 2.17 log2; in experiment [2] it was 3.17 log2; in experiment [3] it was 2.5 log2; in experiment [4] it was 0.697 log2. Moreover, the Log2(FC) Replicate 3/ Mock in experiment [1] worked out at 3.39 log2; in experiment [2] it was 1.81 log2; in experiment [3], 1.74 log2; in experiment [4] it was 1.95 log2. Besides, the Log2(FC) Replicate 4/ Mock in experiment [1] amounted to 3.09 log2; in experiment [2], 1.81 log2; in experiment [3], 1.87 log2; in experiment [4], 1.84 log2.
